Experiments:
[1] = test system: T1, O=C[C@H](O)[C@@H](O)[C@H](O)CO; test: purified protein, by the assay type; type: biochemical, Actinoplanes missouriensis; settings: other: xylose, 35° C., 10 mM Mg2+, pH 7.5
T1 construct: made in house; host or cells: E. coli K514
Protocol: Alternatively, the D-fructose produced during the isomerization reaction can be determined enzymatically using sorbitol dehydrogenase and NADH.
As a measure of specificity the quotient is Vmax /Km is sometimes used (Wells et al., ibid). […] These temperatures are chosen for practical reasons.
Activities were measured on purified enzyme. The coupled sorbitol dehydrogenase assay was used for xylose, the cysteine-carbazole or discontinuous sorbitol dehydrogenase method was used for glucose.

[2] = test system: O=C[C@H](O)[C@@H](O)[C@H](O)CO; test: purified protein, by the assay type; settings: pH 7.5

Actinoplanes missouriensis glucose isomerase, wild type, SEQ ID NO: 1 (Actinoplanes missouriensis 431), sequence (chain, as listed by the source): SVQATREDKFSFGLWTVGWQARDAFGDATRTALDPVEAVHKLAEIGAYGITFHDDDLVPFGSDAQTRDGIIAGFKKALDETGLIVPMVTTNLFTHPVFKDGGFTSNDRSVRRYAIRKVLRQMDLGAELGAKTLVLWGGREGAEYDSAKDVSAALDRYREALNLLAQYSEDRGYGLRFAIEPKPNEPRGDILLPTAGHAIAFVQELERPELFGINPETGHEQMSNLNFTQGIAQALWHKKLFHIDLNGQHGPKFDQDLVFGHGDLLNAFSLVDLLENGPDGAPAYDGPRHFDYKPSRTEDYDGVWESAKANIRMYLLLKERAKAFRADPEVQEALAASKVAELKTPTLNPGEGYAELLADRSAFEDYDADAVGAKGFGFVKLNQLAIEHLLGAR
Actinoplanes missouriensis glucose isomerase variant M88SH290N (M88S/H290N) (Actinoplanes missouriensis 431; H290N/M88S), sequence (chain, as listed by the source M88S H290N H290N M88S): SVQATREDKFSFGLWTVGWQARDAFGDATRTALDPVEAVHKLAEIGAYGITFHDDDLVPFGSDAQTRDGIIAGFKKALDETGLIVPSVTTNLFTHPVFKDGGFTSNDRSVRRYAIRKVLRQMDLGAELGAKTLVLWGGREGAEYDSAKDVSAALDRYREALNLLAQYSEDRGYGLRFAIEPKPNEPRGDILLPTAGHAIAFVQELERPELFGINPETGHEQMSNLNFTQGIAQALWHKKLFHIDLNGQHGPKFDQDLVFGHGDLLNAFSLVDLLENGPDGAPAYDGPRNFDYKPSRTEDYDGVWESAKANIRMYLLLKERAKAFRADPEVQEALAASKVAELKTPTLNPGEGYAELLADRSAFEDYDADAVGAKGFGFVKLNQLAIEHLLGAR
Actinoplanes missouriensis glucose isomerase variant T90S (Actinoplanes missouriensis 431; T90S), sequence (chain, as listed by the source T90S T90S): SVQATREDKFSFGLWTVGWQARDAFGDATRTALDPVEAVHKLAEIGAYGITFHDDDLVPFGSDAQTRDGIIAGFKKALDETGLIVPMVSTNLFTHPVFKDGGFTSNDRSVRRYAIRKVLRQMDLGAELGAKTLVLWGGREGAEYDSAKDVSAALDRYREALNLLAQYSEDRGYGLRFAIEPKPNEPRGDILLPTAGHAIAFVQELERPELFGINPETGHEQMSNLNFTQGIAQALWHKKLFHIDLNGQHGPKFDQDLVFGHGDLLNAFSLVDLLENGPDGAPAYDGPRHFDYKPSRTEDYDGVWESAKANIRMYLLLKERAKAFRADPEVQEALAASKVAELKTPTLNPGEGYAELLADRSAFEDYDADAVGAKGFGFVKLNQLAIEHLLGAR
Actinoplanes missouriensis glucose isomerase variant M88SH243N (M88S/H243N) (Actinoplanes missouriensis 431; H243N/M88S), sequence (chain, as listed by the source M88S H243N H243N M88S): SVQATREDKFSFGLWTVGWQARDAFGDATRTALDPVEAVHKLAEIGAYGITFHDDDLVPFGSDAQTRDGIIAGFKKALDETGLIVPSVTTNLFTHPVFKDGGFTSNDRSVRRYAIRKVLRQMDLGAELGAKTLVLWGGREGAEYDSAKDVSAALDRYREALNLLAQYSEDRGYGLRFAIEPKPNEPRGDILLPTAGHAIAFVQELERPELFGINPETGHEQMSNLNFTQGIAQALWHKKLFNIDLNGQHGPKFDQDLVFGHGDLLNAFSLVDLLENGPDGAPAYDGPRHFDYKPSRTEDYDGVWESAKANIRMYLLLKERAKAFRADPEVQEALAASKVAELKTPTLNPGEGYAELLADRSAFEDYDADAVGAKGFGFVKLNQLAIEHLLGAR
Actinoplanes missouriensis glucose isomerase variant M88S (Actinoplanes missouriensis 431; M88S), sequence (chain, as listed by the source M88S M88S): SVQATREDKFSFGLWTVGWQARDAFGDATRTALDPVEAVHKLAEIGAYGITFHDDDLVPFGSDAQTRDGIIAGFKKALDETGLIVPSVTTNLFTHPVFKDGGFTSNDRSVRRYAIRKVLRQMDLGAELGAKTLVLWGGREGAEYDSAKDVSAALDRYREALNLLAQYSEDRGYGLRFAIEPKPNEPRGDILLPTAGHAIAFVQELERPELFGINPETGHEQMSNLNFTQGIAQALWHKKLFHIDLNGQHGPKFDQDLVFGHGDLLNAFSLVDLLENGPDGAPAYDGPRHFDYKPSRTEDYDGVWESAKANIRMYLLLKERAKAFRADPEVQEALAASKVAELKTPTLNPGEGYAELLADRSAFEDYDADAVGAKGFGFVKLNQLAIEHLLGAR
Actinoplanes missouriensis glucose isomerase variant A25K (Actinoplanes missouriensis 431; A25K), sequence (chain, as listed by the source A25K A25K): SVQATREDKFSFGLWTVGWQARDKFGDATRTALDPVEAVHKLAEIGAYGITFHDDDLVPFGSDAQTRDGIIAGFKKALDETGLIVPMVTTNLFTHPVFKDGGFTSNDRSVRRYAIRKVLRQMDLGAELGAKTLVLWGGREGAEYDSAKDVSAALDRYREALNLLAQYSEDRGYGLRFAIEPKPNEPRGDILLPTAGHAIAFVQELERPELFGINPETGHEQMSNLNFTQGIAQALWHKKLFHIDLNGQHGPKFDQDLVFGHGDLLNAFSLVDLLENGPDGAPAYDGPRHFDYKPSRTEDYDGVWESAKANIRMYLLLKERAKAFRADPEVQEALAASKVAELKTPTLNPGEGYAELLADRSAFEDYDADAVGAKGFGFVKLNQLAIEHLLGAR
Actinoplanes missouriensis glucose isomerase variant H290N (Actinoplanes missouriensis 431; H290N), sequence (chain, as listed by the source H290N H290N): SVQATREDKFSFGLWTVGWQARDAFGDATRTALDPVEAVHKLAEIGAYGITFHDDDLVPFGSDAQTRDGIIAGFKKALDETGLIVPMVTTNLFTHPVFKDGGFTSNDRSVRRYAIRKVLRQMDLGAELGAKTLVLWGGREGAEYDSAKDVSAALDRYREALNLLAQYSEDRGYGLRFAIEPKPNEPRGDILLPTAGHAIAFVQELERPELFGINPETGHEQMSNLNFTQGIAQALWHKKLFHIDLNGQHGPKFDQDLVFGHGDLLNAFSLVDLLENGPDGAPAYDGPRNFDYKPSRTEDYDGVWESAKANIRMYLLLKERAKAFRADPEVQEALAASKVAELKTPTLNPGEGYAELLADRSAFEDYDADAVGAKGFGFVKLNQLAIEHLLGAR
Actinoplanes missouriensis glucose isomerase variant V135Q (Actinoplanes missouriensis 431; V135Q), sequence (chain, as listed by the source V135Q V135Q): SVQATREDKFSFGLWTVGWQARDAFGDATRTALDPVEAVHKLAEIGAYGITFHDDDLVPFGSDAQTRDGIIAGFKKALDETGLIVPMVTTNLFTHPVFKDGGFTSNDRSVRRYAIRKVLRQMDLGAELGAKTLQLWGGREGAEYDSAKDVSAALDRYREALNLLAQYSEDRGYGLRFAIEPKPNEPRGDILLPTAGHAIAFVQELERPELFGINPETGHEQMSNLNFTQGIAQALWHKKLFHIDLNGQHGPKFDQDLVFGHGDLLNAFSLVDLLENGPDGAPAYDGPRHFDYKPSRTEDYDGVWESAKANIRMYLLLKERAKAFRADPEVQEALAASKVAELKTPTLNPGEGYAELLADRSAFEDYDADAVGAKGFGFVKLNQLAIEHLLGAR

Row | Substance | Km [1] | also measured
1 | Actinoplanes missouriensis glucose isomerase variant M88SH290N (M88S/H290N) (Actinoplanes missouriensis 431; H290N/M88S) | 14.8 mM | –
2 | Actinoplanes missouriensis glucose isomerase variant H290N (Actinoplanes missouriensis 431; H290N) | 9.7 mM | –
3 | Actinoplanes missouriensis glucose isomerase variant M88S (Actinoplanes missouriensis 431; M88S) | 7.6 mM | –
4 | Actinoplanes missouriensis glucose isomerase variant A25K (Actinoplanes missouriensis 431; A25K) | 2.73 mM | –
5 | Actinoplanes missouriensis glucose isomerase variant M88SH243N (M88S/H243N) (Actinoplanes missouriensis 431; H243N/M88S) | 11.9 mM | –
6 | Actinoplanes missouriensis glucose isomerase variant T90S (Actinoplanes missouriensis 431; T90S) | 16.8 mM | –
7 | Actinoplanes missouriensis glucose isomerase variant V135Q (Actinoplanes missouriensis 431; V135Q) | 56 mM | –
8 | Actinoplanes missouriensis glucose isomerase, wild type, SEQ ID NO: 1 (Actinoplanes missouriensis 431) | – | Km ([2]; other: 35° C., 1 mM Mn): 13.2 mM; Vmax ([2]; other: 35° C., 1 mM Mn): 8.6 µmol/min/mg; Km ([2]; other: xylose, 35° C., 10 mM Mg2+): 4.8 mM

— patent US5310665A, “Glucose isomerases having altered substrate specificity” (Gist-brocades, N.V., priority 1990, dated 1994)
